US20260021168A1

B1: imlifidase (IdeS, Immunoglobulin G-degrading enzyme of S. pyogenes) (protein)
chain: DSFSANQEIRYSEVTPYHVTSVWTKGVTPPANFTQGEDVFHAPYVANQGWYDITKTFNGKDDLLCGAATAGNMLHWWFDQNKDQIKRYLEEHPEKQKINFNGEQMFDVKEAIDTKNHQLDSKLFEYFKEKAFPYLSTKHLGVFPDHVIDMFINGYRLSLTNHGPTPVKEGSKDPRGGIFDAVFTRGDQSKLLTSRHDFKEKNLKEISDLIKKELTEGKALGLSHTYANVRINHVINLWGADFDSNGNLKAIYVTDSDSNASIGMKKYFVGVNSAGKVAISAKEIKEDNIGAQVLGLFTLSTGQDSWNQTN

Legend:
[1] = target: Thymoglobulin (Genzyme), rabbit anti-thymocyte globulin; test: cell-based or functional assay
[2] = target: ATGAM (equine Anti-thymocyte Globulin); test: cell-based or functional assay
[3] = target: alemtuzumab (Campath, anti-CD52, Genzyme), intact IgG; test: cell-based or functional assay
[4] = target: endogenous human serum IgG

Molecule | cleavage of 50 µg/mL rATG in sera of imlifidase-treated subjects, SDS-PAGE and Western blot [1] [µg/mL] | cytotoxic activity of ATGAM in whole blood after imlifidase treatment, CD3+ flow cytometry [2] [µg/mL] | block of the cytotoxic effect of alemtuzumab on CD3-positive T-cells in whole blood, flow cytometry [3] [µg/mL] | imlifidase concentration sufficient for cleavage in whole blood (SDS-PAGE of plasma, CD3+ flow cytometry) [3] [µg/mL] | imlifidase concentration sufficient for cleavage in whole blood (SDS-PAGE of plasma) [4]
imlifidase (IdeS, Immunoglobulin G-degrading enzyme of S. pyogenes) | 0.5 | > 30 | 1.9 | 4 | 
B1 |  |  |  |  | a concentration of approx. 4 µg/mL imlifidase is sufficient to cleave all serum IgG and 100 µg/mL alemtuzumab
